For assay [1], the target named is T1, human CD47 expressed on cells (CD47 expressing CHO cells, Jurkat, HL60, DLD1, Raji) (human, UniProt Q08722 19-292).
T1 construct: also called CHO-CD47; IAP
Nature of the assay: EC50 (nM) as grade, binding on CHO-CD47 cells; legend +++: >0.05 nM and <1 nM.

Assay [2] has as its target T2, human CD47-Fc protein (Novoprotein, Cat#CG18) (human, UniProt Q08722 19-139).
T2 construct: Bought protein; also called CD47-hFc; hCD47-hFc fusion protein; not shown: human IgG Fc of the bought fusion protein
As to the kind of experiment: IC50 (nM) as grade, blocking of soluble CD47 binding to SIRPα-expressing CHO cells; legend ++: >1 nM and <10 nM.

For assay [3], the target named is T1, human CD47 expressed on cells (CD47 …). Nature of the assay: flow cytometry on human red blood cells, donor 2, MFI; EC50 (nM) table beside the legend.
In a further assay the target is T3, CHO/mCD47-GFP (mouse, UniProt Q61735).
T3 construct: on the cell surface; also called mouse CD47 expressed on CHO cells; CHO cell expressing mouse CD47
T3 sequence (receptor, looked up): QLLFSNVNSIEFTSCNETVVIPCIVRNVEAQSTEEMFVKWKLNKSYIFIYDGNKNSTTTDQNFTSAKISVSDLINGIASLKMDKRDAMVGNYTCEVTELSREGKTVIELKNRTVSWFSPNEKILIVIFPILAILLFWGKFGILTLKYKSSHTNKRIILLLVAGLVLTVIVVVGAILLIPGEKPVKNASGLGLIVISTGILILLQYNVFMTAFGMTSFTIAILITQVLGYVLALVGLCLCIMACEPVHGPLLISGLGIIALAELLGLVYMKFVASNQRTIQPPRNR
Nature of the assay: flow cytometry on CHO cells expressing mouse CD47-GFP, binding percentage.

Assay [4] deals with T4, CD47 protein (construct not stated; SPR antigen, CD47 coated ELISA plates) (Homo sapiens (Human), UniProt Q08722 19-139, limits assumed).
T4 construct: also called the antigen
As to the kind of experiment: SPR (Biacore T100), affinity (nM) as grade; legend -: >40 nM.

Assay [5] has as its target T1, human CD47 expressed on cells (CD47 …). As to the kind of experiment: EC50 (nM) as grade, binding on Jurkat cells; legend +++: >0.05 nM and <1 nM.
The target of assay [6] is T2, human CD47-Fc protein (Novoprotein, …). Nature of the assay: IC50 (nM) as grade, blocking of soluble CD47 binding to SIRPα-expressing CHO cells; legend +++: >0.05 nM and <1 nM.
Assay [7] addresses T4, CD47 protein (construct not stated; SPR …). As to the kind of experiment: SPR (Biacore T100), affinity (nM) as grade; legend +: >10 nM and <40 nM.
Assay [8] has as its target T2, human CD47-Fc protein (Novoprotein, …). Nature of the assay: IC50 (nM) as grade, neutralizing ELISA, CD47-hFc on SIRPα coated plate; legend +++: >8 nM and <15 nM.
For assay [9], the target named is T1, human CD47 expressed on cells (CD47 …). Nature of the assay: EC50 (nM) as grade, binding on CHO-CD47 cells; legend ++++: <0.05 nM.
The target is the same in assay [10]. Nature of the assay: flow cytometry on CD47 expressing CHO cells, MFI (FL-4).
Assay [11] shares this target. Nature of the assay: EC50 (nM) as grade, binding on Jurkat cells; legend ++: >1 nM and <10 nM.
Assay [12] has the same target. Nature of the assay: flow cytometry on DLD1 cells, IgG, frequency.
For assay [13], the target named is T5, biotin labelled polyhistidine tagged CD47 protein (Novoprotein, Cat#321) (human, UniProt Q08722 19-139, biotin labelled (site not stated)).
T5 construct: Bought protein; also called biotinylated CD47; biotinylated human CD47 protein; not shown: polyhistidine tag
Nature of the assay: flow cytometry blocking assay: antibody mixed with biotinylated human CD47 protein; blocked ligand SIRPα on cells; binding percentage.

Assay [14] concerns the target T1, human CD47 expressed on cells (CD47 …). As to the kind of experiment: EC50 (nM) as grade, binding on Jurkat cells; legend ++++: <0.05 nM.
The target of assay [15] is T2, human CD47-Fc protein (Novoprotein, …). As to the kind of experiment: IC50 (nM) as grade, neutralizing ELISA, CD47-hFc on SIRPα coated plate; legend ++: >15 nM and <20 nM.

Where only a bound is given, the exact number is not on record here.

B1: ABU1 (antibody, V domains shown)
VH: EVKLVESGGGLVQPGGSRKLSCAASGFTFSDYGMAWVRQAPGKGPECVAFISNLAKRIYYVDTVTGRFTISRENAKNTLYLEMSSLRSEDTAMYYCTRAYRYALDYWGQGTTLTVSS
VL: QIVLTQSPAIMSASPGEKVTMTCSASSSVSYMNWYQQKSGTSPKRWIYDTSKLASGVPARFSGSGSGTSYSLTISSMEAEDAATYYCQQWNSNPPTFGTGTKLELK
notes: Murine hybridoma monoclonal antibody
As for B1, the figures for the EC50 in assay [1], in assay [3] and in assay [5] were 0.05 to 1 nM, 0.12 nM and 0.05 to 1 nM, respectively. The IC50 in assay [2] was in the range of 1 to 10 nM. Moreover, the binding result in the assay with CHO/mCD47-GFP is “no binding (tested: about 0.4 ug/ml)”. Further, the Kd in [4] was over 40 nM.

B2: ABU4 (antibody, V domains shown)
VH: QVQLQQSGPQLVRPGASVKISCKTSGYSFTNYWMQWVKQRPGQGLEWIGMIDPSDSESRLNQKFKDKATLTVDKSSSTAYMQLSSPTFEDSAVYYCARRGSPMITSFAYWGQGTLVTVSA
VL: DVQITQSPSFLAASPGETITINCRASKNIGKYLAWFQEKPGKTNKLLIYSGSTLQSGIPSRFSGSGSGTDFTLTISSLEPEDFAIYYCQQHNEYPYTFGGGTKLEIK
notes: as for B1
On to B2, for which the EC50 in assay [3] was 0.34 nM; in assay [9], under 0.05 nM; in [5] it was 0.05 to 1 nM. Also, the IC50 in assay [6] was 0.05 to 1 nM; in [8], 8 to 15 nM. The binding result with CHO/mCD47-GFP is listed as “no binding (tested: about 0.4 ug/ml)”. For the same molecule, in assay [7], the “Affinity by SPR” value is 10 to 40 nM.

B3: Positive 2 (benchmark analogue antibody) (antibody, V domains shown)
VH: QVQLQQPGAELVKPGASVMMSCKASGYTFTNYNMHWVKQTPGQGLEWIGTIYPGNDDTSYNQKFKDKATLTADKSSSAAYMQLSSLTSEDSAVYYCARGGYRAMDYWGQTSVTVSS
VL: DVLMTQTPLSLPVSLGDQASISCRSSQSIVYSNGNTYLGWYLQKPGQSPKLLIYKVSNRFSGVPDRFSGSGSGTDFTLKISRVEAEDLGVYHCFQGSHVPYTFGGGTKVEIK
notes: also called Pos
In turn, B3 yielded a concentration for half-maximal inhibition (IC50) in [2] of 1 to 10 nM. In addition, the “EC50 (read off the curve)” value in assay [10] and in assay [12] was about 2 nM in each case. The results for the EC50 in assay [11] and in assay [9] were 1 to 10 nM and under 0.05 nM, respectively. The “IC50 (read off the curve)” value in assay [13] was about 8 nM. For the same molecule, in the assay with CHO/mCD47-GFP, the binding result is “no binding (tested: about 0.4 ug/ml)”. Moreover, the “Affinity by SPR” value in [7] was in the range of 10 to 40 nM.

B4: ABU3 (antibody, V domains shown)
VH: EVQLQQSGAELVKPGASVKLSCTASGFTIKDTYMHWVKQRPEQGLEWIGRIDPAKDNTKYDPKFQGKATITLDTSSNIAYLQLSSLTSEDTAVYFCARGHYGSSYVVYWGQGTLVTVSA
VL: NILMTQSPKSMSMSVGERVTLSCKASENVGTYVSWYQQKPDQSPKLLIYGASNRYTGVPDRFTGSGSATDFTLTISSVQAEDLADYHCGQSYSYPLTFGAGTKLELK
notes: as for B1
For the molecule B4, the IC50 in assay [2] fell in the range of 1 to 10 nM; in assay [15] it was 15 to 20 nM. Further, the results for the concentration for a half-maximal effect (EC50) in assay [14], in assay [3] and in assay [9] were under 0.05 nM, 1.47 nM and under 0.05 nM, respectively. Besides, in the assay with CHO/mCD47-GFP, the binding result was “no binding (tested: about 0.4 ug/ml)”. In addition, the “Affinity by SPR” value in assay [7] was 10 to 40 nM.

The record behind these values is patent publication US20200247886A1 (ZLIP, published 2020).
